Positions count from the first letter of the chain named.
Experiments:
[1] = biological target: T1, recombinant human TSLP (glycosylated long form) (human, UniProt Q969D9 29-159); test: cell-based or functional assay
[2] = biological target: T1, recombinant human TSLP (glycosylated …); test: cell-based or functional assay; remark: listed apart in the source
[3] = biological target: T2, human IL-4 (human, UniProt P05112 25-153); test: cell-based or functional assay
T2 sequence (looked up): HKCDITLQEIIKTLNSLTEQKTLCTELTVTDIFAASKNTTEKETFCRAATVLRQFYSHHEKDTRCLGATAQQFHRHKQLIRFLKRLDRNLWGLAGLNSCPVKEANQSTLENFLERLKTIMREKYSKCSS

[4] = biological target: human TSLP (long form) (human, UniProt Q969D9 29-159, Biotinylated on the Avi tag in some assays; glycosylated (Expi293F expression)); test: cell-based or functional assay
[5] = biological target: T3, human IL-13 (human, UniProt P35225 35-146); test: cell-based or functional assay
[6] = biological target: T4, human IL-4 (human, UniProt P05112 25-153); test: cell-based or functional assay; remark: listed apart in the source
T4 sequence (looked up): T2 sequence (looked up)

[7] = biological target: human IL-13 (human, UniProt P35225 35-146); test: cell-based or functional assay; remark: listed apart in the source
[8] = biological target: T5, recombinant human IL-33 (R&D Systems 3625-IL), reduced with DTT (human, UniProt O95760 112-270, limits assumed); test: cell-based or functional assay
T5 sequence (looked up): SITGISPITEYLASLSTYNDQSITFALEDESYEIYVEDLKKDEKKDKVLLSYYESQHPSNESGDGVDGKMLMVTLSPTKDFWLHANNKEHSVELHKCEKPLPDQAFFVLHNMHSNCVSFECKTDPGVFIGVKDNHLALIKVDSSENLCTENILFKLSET

[9] = biological target: T3, human IL-13; test: cell-based or functional assay; remark: listed apart in the source
[10] = biological target: T3, human IL-13; test: SPR 37°C, antibody captured by anti-human IgG, human IL-13 1.56-50 nM

B1: TSLP-0260 (antibody, V domains shown)
VH: QMQLVESGGGVVQPGRSLRLSCAASGFTFRTYGMHWVRQAPGKGLEWVAVIWYDGSNKHYADSVKGRFTISRDNSKNTLYLQMNSLRAEDTAVYYCARAPQWYLVHEAFDIWGQGTMVTVSS
VL: SYVLTQPPSVSVAPGQTARITCGGNNLGSKSVHWYQQKPGQAPVLVVYDDSDRPSWIPERFSGSNSGNTATLTISRGEAGDEADYYCQVWDESSDHVVFGGGTKLTVLG
[1]
  a-TSLP TARC bioassay (fold change to TSLP-0001): 3.4 fold
[2]
  TARC bioassay (IC50, pM): 6.65 pM

B2: TSLP-0156 (antibody, human IgG1, lambda, V domains shown)
VH: B1 VH
VL: B1 VL with E92S
[2]
  TARC bioassay (IC50, pM): 4.25 pM

B3: IL413TSLP-1028 (trispecific antibody)
heavy: not shown
chain 1: DIQMTQSPSSLSASVGDRVTITCKASESVDHFGWSLVHWYQQKPGKAPKLLIYRASNLESGVPSRFSGSGSGTDFTLTISSLQPEDFATYYCQQSNEDPWTFGGGTKVEIKRTVAAPSVFIFPPSDEQLKSGTASVVCLLNNFYPREAKVQWKVDNALQSGNSQESVTEQDSKDSTYSLSSTLTLSKADYEKHKVYACEVTHQGLSSPVTKSFNRGECGGGGSEVTLRESGPALVKPTQTLTLTCTFSGFSLSNFGEGLSWIRQPPGKGLEWLAHIYWDDDKRYNPSLKSRLTISKDTSRNQVVLTMTNMDPVDTATYYCARRETVFYWYFDVWGQGTTVTVSSASTKGPSVFPLAPSSKSTSGGTAALGCLVKDYFPEPVTVSWNSGALTSGVHTFPAVLQSSGLYSLSSVVTVPSSSLGTQTYICNVNHKPSNTKVDKKVEPKSCEKTHTCPPCPAPEAAGAPSVFLFPPKPKDTLMISRTPEVTCVVVDVSHEDPEVKFNWYVDGVEVHNAKTKPREEQYNSTYRVVSVLTVLHQDWLNGKEYKCKVSNKALPAPIEKTISKAKGQPREPQVYTLPPSREEMTKNQVSLTCEVKGFYPSDIAVEWESNGQPENNYKTTPPVLDSDGSFFLYSKLTVDKSRWQQGNVFSCSVLHEALHSHYTQKSLSLSPGK
light 1: SYVLTQPPSVSVAPGQTARITCGGNNLGSKSVHWYQQKPGQAPVLVVYDDSDRPSWIPERFSGSNSGNTATLTISRGEAGDEADYYCQVWDSSSKHVVFGGGTKLTVLGQPKAAPSVTLFPPSSEELQANKATLVCLISDFYPGAVTVAWKADSSPVKAGVETTTPSKQSNNKYAASSYLSLTPEQWKSHRSYSCQVTHEGSTVEKTVAPTECS
light 2: DIQMTQSPSSLSASVGDRVTITCRASQSVDEEGDSYMNWYQQKPGKAPKLLIYAASNLESGVPSRFSGSGSGTDFTLTISSLQPEDFATYYCQQSNKDPPTFGGGTKVEIKRTVAAPSVFIFPPSDEQLKSGTASVVCLLNNFYPREAKVQWKVDNALQSGNSQESVTEQDSKDSTYSLSSTLTLSKADYEKHKVYACEVTHQGLSSPVTKSFNRGEC
chain 2: EVQLVESGGGLVQPGGSLRLSCAASGFTFSSYAMSWVRQAPGKGLEWVASISSGDTTYYPDSVKGRFTISRDNAKNSLYLQMNSLRAEDTAVYYCARNEGYYFGLTLWGQGTLVTVSSASTKGPSVFPLAPSSKSTSGGTAALGCLVKDYFPEPVTVSWNSGALTSGVHTFPAVLQSSGLYSLSSVVTVPSSSLGTQTYICNVNHKPSNTKVDKKVEPKSC
[3]
  IC50, IL-4-induced CCL17 secretion by 769-P cells: 0.139 nM
[4]
  fold lower potency than the mAb (TSLP-0855), monocyte TARC bioassay: ~2.5 fold
[5]
  IC50, IL-13-induced CCL17 secretion by 769-P cells: 0.811 nM

B4: IL413TSLP-0251 (other)
heavy: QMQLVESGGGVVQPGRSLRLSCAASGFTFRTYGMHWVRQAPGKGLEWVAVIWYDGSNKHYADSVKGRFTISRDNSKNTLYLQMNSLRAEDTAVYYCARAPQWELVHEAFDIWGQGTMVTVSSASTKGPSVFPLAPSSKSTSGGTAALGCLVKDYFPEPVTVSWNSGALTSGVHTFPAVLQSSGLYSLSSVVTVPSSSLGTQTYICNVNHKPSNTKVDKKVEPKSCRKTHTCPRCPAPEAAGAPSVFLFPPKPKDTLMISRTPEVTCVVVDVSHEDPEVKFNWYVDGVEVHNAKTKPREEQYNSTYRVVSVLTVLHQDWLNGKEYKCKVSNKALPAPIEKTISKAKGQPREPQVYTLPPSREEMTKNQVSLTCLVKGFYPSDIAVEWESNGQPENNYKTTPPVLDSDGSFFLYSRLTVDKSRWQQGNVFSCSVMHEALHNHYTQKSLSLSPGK
chain 1: EVQLVESGGGLVQPGGSLRLSCAASGFTFSSYAMSWVRQAPGKGLEWVASISSGDTTYYPDSVKGRFTISRDNAKNSLYLQMNSLRAEDTAVYYCARNEGYYFGLTLWGQGTLVTVSSRTVAAPSVFIFPPSDEQLKSGTASVVCLLNNFYPREAKVQWKVDNALQSGNSQESVTEQDSKDSTYSLSSTLTLSKADYEKHKVYACEVTHQGLSSPVTKSFNRGECGGGGSEVTLRESGPALVKPTQTLTLTCTFSGFSLSNFGEGLSWIRQPPGKGLEWLAHIYWDDDKRYNPSLKSRLTISKDTSRNQVVLTMTNMDPVDTATYYCARRETVFYWYFDVWGQGTTVTVSSASTKGPSVFPLAPSSKSTSGGTAALGCLVKDYFPEPVTVSWNSGALTSGVHTFPAVLQSSGLYSLSSVVTVPSSSLGTQTYICNVNHKPSNTKVDKKVEPKSCEKTHTCPECPAPEAAGAPSVFLFPPKPKDTLMISRTPEVTCVVVDVSHEDPEVKFNWYVDGVEVHNAKTKPREEQYNSTYRVVSVLTVLHQDWLNGKEYKCKVSNKALPAPIEKTISKAKGQPREPQVYTLPPSREEMTKNQVSLTCEVKGFYPSDIAVEWESNGQPENNYKTTPPVLDSDGSFFLYSKLTVDKSRWQQGNVFSCSVMHEALHNHYTQKSLSLSPGK
light 1: B3 light 1 with K95D
light 2: B3 light 2 with R24K, E32D, K97E
chain 2: DIQMTQSPSSLSASVGDRVTITCKASESVDHFGWSLVHWYQQKPGKAPKLLIYRASNLESGVPSRFSGSGSGTDFTLTISSLQPEDFATYYCQQSNEDPWTFGGGTKVEIKASTKGPSVFPLAPSSKSTSGGTAALGCLVKDYFPEPVTVSWNSGALTSGVHTFPAVLQSSGLYSLSSVVTVPSSSLGTQTYICNVNHKPSNTKVDKKVEPKSC
[6]
  a-hIL-4 IC50 [pM]: 6.11 pM
[7]
  a-hIL-13 IC50 [pM]: 13.7 pM

B5: IL413TSLP-0252 (other)
heavy: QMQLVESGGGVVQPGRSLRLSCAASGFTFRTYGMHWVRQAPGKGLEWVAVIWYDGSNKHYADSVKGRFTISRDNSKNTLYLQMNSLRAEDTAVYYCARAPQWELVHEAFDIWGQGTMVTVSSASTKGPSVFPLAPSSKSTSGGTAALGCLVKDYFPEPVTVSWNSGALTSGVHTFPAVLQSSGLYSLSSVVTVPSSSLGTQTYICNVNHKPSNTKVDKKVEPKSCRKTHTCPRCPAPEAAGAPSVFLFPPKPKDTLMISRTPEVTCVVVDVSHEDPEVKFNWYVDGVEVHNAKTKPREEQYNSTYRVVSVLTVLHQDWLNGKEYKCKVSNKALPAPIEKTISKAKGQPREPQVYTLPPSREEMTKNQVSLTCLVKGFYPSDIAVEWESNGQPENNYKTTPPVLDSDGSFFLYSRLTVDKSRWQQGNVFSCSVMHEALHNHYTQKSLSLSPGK
chain 1: B3 chain 1 with P455E, L655M, S661N
light 1: B3 light 1 with K95D
light 2: B3 light 2 with R24K, E32D, K97E
chain 2: B3 chain 2
[6]
  a-hIL-4 IC50 [pM]: 3.65 pM
[7]
  a-hIL-13 IC50 [pM]: 11.2 pM

B6: IL413TSLP-1037 (trispecific antibody)
heavy: not shown
chain 1: B3 chain 1
light 1: B3 light 1 with S51K, S92K, K95D
light 2: B3 light 2
chain 2: B3 chain 2
[3]
  IC50, IL-4-induced CCL17 secretion by 769-P cells: 0.179 nM
[4]
  fold lower potency than the mAb (TSLP-0871), monocyte TARC bioassay: ~2.5 fold
[5]
  IC50, IL-13-induced CCL17 secretion by 769-P cells: 0.593 nM

B7: IL33-0721 (antibody, IgG1, V domains shown)
VH: EVQLVESGGGLVQPGGSLRLSCAASGFEFSHYWMYWVRQAPGKGLEWVAAITPNAGEDYYPESVKGRFTISRDNAKNSLYLQMNSLRAEDTAVYYCARGYYRYTKYSLGYWGQGTLVTVSS
VL: DIQMTQSPSSLSASVGDRVTITCRASQPIHQFLDWYQQKPGKAPKLLIYFGHILQEGVPSRFSGSGSGTDFTLTISSLQPEDFATYYCFQYKQGWSFGGGTKVEIK
[8]
  IC50 [nM] versus reduced human IL-33 (R&D), IC50 (AVE): 0.026 nM

B8: IL13-0259 (antibody, IgG1, V domains shown)
VH: EVQLVESGGGLVQPGGSLRLSCAASGFTFSSYAMSWVRQAPGKGLEWVASISTGDTTYYPDSVKGRFTISRDNAKNSLYLQMNSLRAEDTAVYYCARNEGYYFGLTQWGRGTLVTVSS
VL: DIQMTQSPSSLSASVGDRVTITCRASQSVDHFGWSLVHWYQQKPGKAPKLLIYRASNLESGVPSRFSGSGSGTDFTLTISSLQPEDFATYYCQQSNEDPWTFGGGTKVEIK
notes: IgG1 effector-null/kappa IgG
[9]
  CD23: Fold versus IL13-0001: 0.81 fold
  CD23 IC50 [pM] Ave. n = 2: 7.4 pM
[10]
  Kd: 0.0717 nM

B9: IL13-0271 (antibody, IgG1, V domains shown)
VH: B8 VH
VL: B8 VL with Q27E, S56D, N57S, S60T
notes: IgG1 effector-null/kappa IgG; also called IL13433-0271
[9]
  CD23: Fold versus IL13-0001: 1.01 fold
  CD23 IC50 [pM] Ave. n = 2: 5.9 pM
[10]
  Kd: 0.0736 nM

B10: IL13-0270 (antibody, V domains shown)
VH: B8 VH with Q107L, R110Q
VL: B8 VL with Q27E, S56D, N57S, S60T
notes: IgG1 effector-null/kappa IgG; also called IL13433-0270
[9]
  CD23: Fold versus IL13-0001: 0.67 fold
  CD23 IC50 [pM] Ave. n = 2: 9 pM
[10]
  Kd: 0.0932 nM

— patent US20240117030A1 (Pfizer, published 2024)
